Experimental data reported in the supplement of paper PMC12667976.

B1: library; numbered along this chain (parent)
chain: MATDAALRRLLRLHRTEIAVAVDSAFPLLHALADHDVVPEDKFQETLHLKEKEGCPQAFHALLSWLLTQDSTAILDFWRVLFKDYNLERYGRLQPILDSFPKDVDLSQPRKGRKPPAVPKALVPPPRLPTKRKASEEARAAAPAALTPRGTASPGSQLKAKPPKKPESSAEQQRLPLGNGIQTMSASVQRAVAMSSGDVPGARGAVEGILIQQVFESGGSKKCIQVGGEFYTPSKFEDSGSGKNKARSSSGPKPLVRAKGAQGAAPGGGEARLGQQGSVPAPLALPSDPQLHQKNEDECAVCRDGGELICCDGCPRAFHLACLSPPLREIPSGTWRCSSCLQATVQEVQPRAEEPRPQEPPVETPLPPGLRSAGEEVRGPPGEPLAGMDTTLVYKHLPAPPSAAPLPGLDSSALHPLLCVGPEGQQNLAPGARCGVCGDGTDVLRCTHCAAAFHWRCHFPAGTSRPGTGLRCRSCSGDVTPAPVEGVLAPSPARLAPGPAKDDTASHEPALHRDDLESLLSEHTFDGILQWAIQSMARPAAPFPS

Variants of: B1
Assay: AIRE transcriptional activation functional score (insulin promoter-GFP; nonsense median 0, synonymous median 1) (normalised score); higher = higher AIRE activity (more reporter activation)
Settings: with insulin promoter-GFP reporter in HEK293
Method: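 Deep mutational scan of full-length human AIRE (codon-optimized cDNA, DT-POPCode NNN libraries over three regions) integrated at a Bxb1 landing pad in HEK293 cells carrying an insulin core promoter-GFP reporter at a Flp-In site. Cells were sorted for the top 10% GFP about 14 days after transfection. Variant frequency log-ratios (select vs non-select, TileSeq) were rescaled so that the nonsense median is 0 and the synonymous median is 1, then averaged over biological replicates.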

AIRE transcriptional activation functional score, by site and new letter:
G201: N 1.01 | A 0.802 | V 0.941 | I 1.23 | E 0.791 | K 0.778 | H 1.02 | W 0.489 | F 1.02 | L 1.32 | S 0.809 | M 1.67 | T 0.924 | R 0.837 | C 1.03 | P 0.598 | Y 1.17 | Q 1.05 | D 0.481
Q212: V -0.424 | P 0.358 | R 1.09 | T 0.447 | S 1.14 | A -0.0175 | E 0.507 | W -0.0246 | I -0.568 | G 0.371 | C 1.01 | L -0.00712 | K 1.04 | F 0.392 | D -0.139 | H 1.68
A202: Y 1.13 | S 0.848 | D 0.687 | P 0.867 | F 0.397 | K 0.112 | M 1.19 | T 0.777 | G 0.818 | W 0.488 | V 1.11 | C 1.39 | R 1.08 | Q 0.415 | I 0.93 | H 1 | N 1.59 | L 0.939 | E 0.791
E207: I 0.19 | P 0.476 | K 0.169 | D 0.788 | F 0.67 | V -0.0618 | M -0.394 | A -0.0187 | T 0.3 | R 0.167 | Y 0.0192 | Q 0.672 | L 0.143 | S 0.372 | N 0.371 | W -0.268 | H 0.756 | C 0.532 | G 1.11
R203: Q 1.13 | H 0.141 | E -0.0204 | C 1.82 | L 1.1 | T 0.744 | S 0.794 | N 0.0951 | Y 0.581 | I 1.2 | A 1.19 | K 0.243 | G 0.547 | V 1.57 | W 0.289 | F 0.572 | P 1.03
L210: Y 0.854 | H 0.71 | W 0.57 | C 0.0167 | S 0.327 | F 1.01 | M 0.6 | A 0.581 | G 0.615 | I 0.93 | E -0.0363 | P 0.65 | Q 0.0497 | V 0.768 | R 0.504
G208: T 0.433 | L 0.332 | E 0.502 | N 0.00613 | R 0.0966 | D 0.296 | H -0.0252 | W 0.199 | I -0.141 | S 0.651 | Q 1.23 | V 0.173 | P 0.201 | A 0.173 | Y -0.0457 | K 0.899 | M 0.171 | C 0.43 | F -0.178
G197: S 1.12 | E 0.192 | N 1.26 | A 0.912 | D 0.624 | F 0.852 | Q 0.484 | V 1.14 | R 1.01 | H 0.619 | T 0.444 | P 1.23 | M 0.448 | C 1.17 | W 0.323 | L 1.06 | I 1.09 | K 0.734 | Y 0.74
P200: I 0.675 | Y 0.0754 | S 1.06 | N 1.12 | H 1.08 | M 1.52 | T 0.911 | K 0.571 | G 0.879 | D 0.545 | Q 1.18 | F 0.777 | C 1.43 | L 1.12 | A 0.713 | V 0.795 | R 0.99
Q213: F -0.348 | G 0.977 | M -0.306 | A 0.437 | H 1.15 | I -0.822 | C 0.354 | L 0.173 | K 1.02 | E 0.718
I211: S 0.773 | W 0.83 | R 0.0828 | G 0.694 | K 0.0368 | D 0.837 | A -0.0822 | L 0.428 | P -0.156 | C 0.481 | E -0.399 | V 1.15 | M 0.504 | Y 1.04 | F 0.181
D198: I 0.948 | T 1.51 | W -0.417 | N 1.09 | P 0.58 | A 1.03 | Q 0.627 | R 0.663 | E 1.2 | C 0.704 | V 0.978 | K 0.684 | S 1.19 | H 0.856 | M 1.02 | Y 0.99 | F 0.583 | L 0.549 | G 1.08
V206: T 0.68 | Y 0.936 | Q 0.0809 | P 0.762 | E 0.273 | H 0.927 | C 0.542 | G 0.631 | R 0.478 | A 0.817 | F 0.751 | S 0.691 | W 0.352 | N 0.529 | M 0.51 | K 0.691 | L 1.1 | I 1.26 | D 0.39
V199: T 0.462 | E 0.905 | Q 0.755 | G 1.09 | D 0.863 | C 0.807 | H 0.599 | A 0.731 | I 1.37 | K 0.754 | Y 1.4 | W 0.623 | P 0.723 | M 1.18 | S 0.671 | R 0.735 | F 1.24 | L 0.982 | N 0.886
S196: W 0.394 | P 0.792 | K 0.809 | A 0.621 | Q 1.11 | L 0.512 | D 0.944 | F 0.117 | T 0.82 | M 0.982 | H 1.01 | R 1.16 | E 1.06 | Y 0.776 | C 1.24 | N 0.962 | V 1.27 | I 0.678 | G 0.938
A205: K 1.17 | Y 0.153 | P 0.728 | D 0.746 | F 0.213 | N 0.648 | Q 0.529 | L 0.428 | S 1.09 | H 1.58 | C 1 | R 0.318 | W -0.461 | G 0.764 | M -0.0564 | E 0.647 | I -0.0126 | T 1.19 | V 0.34
I209: S 0.203 | K 0.159 | C -0.0153 | A 0.165 | F 0.905 | E 0.5 | W 0.784 | D 0.64 | G 0.579 | R 0.917 | N 0.657 | Y 0.98 | L 0.758 | M 0.79 | P 0.35 | V 0.66 | T 0.1
G204: D 0.621 | V 0.123 | Q 0.897 | H 1.43 | S 0.807 | I 0.113 | E 0.847 | Y 0.0127 | N 0.413 | R 1.32 | K 0.976 | C 0.575 | W 0.133 | A 1.42 | F -0.0648 | T 1 | L 0.339 | P 1.08
S195: N 0.649 | R 1.13 | D 0.8 | H 0.996 | C 0.945 | F 0.0295 | I 0.0828 | E 0.862 | G 0.859 | L 0.116 | M 0.346 | K 0.873 | Y 0.427 | A 1.31 | P 0.83 | W -0.0899 | Q 0.659 | T 1.31 | V 0.475
